Data as given in the supplement of paper PMC7877785.
± gives the uncertainty stated by the source.

Test: self-splicing fitness, log relative to wild type (ln ratio); higher = more splicing; Tetrahymena group I intron in knt gene, E. coli kanamycin selection, DiMSum; sequences stand for … in CUCUCU…GGAGGGAAAAGUUAUCAGGCAUGCACCUGGUAGCUAGUCUUUAAACCAAUAGAUUGCAUCGGUUUAAAAGGCAAGACCGUCAAAUUGCGGGAAAGGGGUCAACAGCCGUUCAGUACCAAGUCUCAGGGGAAACUUUGAGAUGGCCUUGCAAAGGGUAUGGUAAUAAGCUGACGGACAUGGUCCUAACCACGCAGCCAAGUCCUAAGUCAACAGAUCUUCUGUUGAUAUGGAUGCAGUUCACAGACUAAAUGUCGGUCGGGGAAGAUGUAUUCUUCUCAUAAGAUAUAGUCGGACCUCUCCUUAAUGGGAGCUAGCGGAUGAAGUGAUGCAACACUGGAGCCGCUGGGAACUAAUUUGUAUGCGAAAGUAUAUUGAUUAGUUUUGGAGUACUCGUGGUCG
In short: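 DiMSum derived fitness as the error-weighted combination of fold changes across replicates, kanamycin versus no kanamycin, normalised to wild type. E. coli BL21(DE3) held the library, which randomised all eight P1ex-region intron nucleotides within the knt kanamycin-resistance gene on pET-22b(+). Six replicate transformations grew overnight at 37°C or 30°C on LB agar with or without 25 μg/mL kanamycin, also containing 100 μg/mL carbenicillin, 50 μM IPTG and 0.2% rhamnose, and pooled colonies were amplicon-sequenced on an Illumina HiSeq 2500.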

Sequence: CCCCAGCAAUAUUACGCUGG
- self-splicing fitness (ln) (30 °C): -2.76 ± 0.11
- self-splicing fitness (ln) (37 °C): -1.73 ± 0.14

Sequence: CGACAGCAAUAUUACGCCAC
- self-splicing fitness (ln) (37 °C): 0.365 ± 0.49

Sequence: AUGAAGCAAUAUUACGUGGC
- self-splicing fitness (ln) (30 °C): -3.92 ± 0.25
- self-splicing fitness (ln) (37 °C): -2.56 ± 0.31

Sequence: UGCUAGCAAUAUUACGCAUU
- self-splicing fitness (ln) (30 °C): -3.79 ± 0.39
- self-splicing fitness (ln) (37 °C): -1.85 ± 0.34

Sequence: CGGGAGCAAUAUUACGUGGU
- self-splicing fitness (ln) (30 °C): -3.52 ± 0.2
- self-splicing fitness (ln) (37 °C): -2.46 ± 0.19

Sequence: CUUGAGCAAUAUUACGAUGU
- self-splicing fitness (ln) (30 °C): -2.24 ± 0.14
- self-splicing fitness (ln) (37 °C): -3.43 ± 0.26

Sequence: CGUAAGCAAUAUUACGCAGU
- self-splicing fitness (ln) (30 °C): -3.05 ± 0.2
- self-splicing fitness (ln) (37 °C): -2.64 ± 0.34

Sequence: GUUCAGCAAUAUUACGUCCU
- self-splicing fitness (ln) (30 °C): -0.606 ± 0.14
- self-splicing fitness (ln) (37 °C): 0.279 ± 0.17

Sequence: UGUCAGCAAUAUUACGUAGC
- self-splicing fitness (ln) (30 °C): -3.11 ± 0.2
- self-splicing fitness (ln) (37 °C): -2.17 ± 0.19

Sequence: UGUGAGCAAUAUUACGUUUG
- self-splicing fitness (ln) (30 °C): -2.21 ± 0.14
- self-splicing fitness (ln) (37 °C): -2.76 ± 0.26

Sequence: GGUAAGCAAUAUUACGCGAA
- self-splicing fitness (ln) (30 °C): -1.27 ± 0.15
- self-splicing fitness (ln) (37 °C): -1.15 ± 0.16

Sequence: GGACAGCAAUAUUACGUCAA
- self-splicing fitness (ln) (30 °C): -0.0403 ± 0.063
- self-splicing fitness (ln) (37 °C): 0.0855 ± 0.085

Sequence: CCCAAGCAAUAUUACGCGUU
- self-splicing fitness (ln) (30 °C): -4.28 ± 0.18
- self-splicing fitness (ln) (37 °C): -1.74 ± 0.12

Sequence: UCAUAGCAAUAUUACGGACA
- self-splicing fitness (ln) (30 °C): -2.48 ± 0.21
- self-splicing fitness (ln) (37 °C): -0.42 ± 0.15

Sequence: GGGGAGCAAUAUUACGGAGG
- self-splicing fitness (ln) (37 °C): -1.4 ± 0.35

Sequence: CUAGAGCAAUAUUACGUUUC
- self-splicing fitness (ln) (30 °C): -4.04 ± 0.31
- self-splicing fitness (ln) (37 °C): -2.01 ± 0.28

Sequence: UGAAAGCAAUAUUACGGUUG
- self-splicing fitness (ln) (30 °C): -1.29 ± 0.079
- self-splicing fitness (ln) (37 °C): -0.865 ± 0.091

Sequence: UAAAAGCAAUAUUACGCAGC
- self-splicing fitness (ln) (37 °C): -2.47 ± 0.39

Sequence: ACCCAGCAAUAUUACGGGUA
- self-splicing fitness (ln) (30 °C): -2.54 ± 0.11
- self-splicing fitness (ln) (37 °C): -1.66 ± 0.084

Sequence: AUCGAGCAAUAUUACGUCUA
- self-splicing fitness (ln) (30 °C): -3.26 ± 0.32
- self-splicing fitness (ln) (37 °C): -0.994 ± 0.13

Sequence: UGCAAGCAAUAUUACGAUAC
- self-splicing fitness (ln) (30 °C): -2.87 ± 0.23
- self-splicing fitness (ln) (37 °C): -2.24 ± 0.37

Sequence: GACUAGCAAUAUUACGCGUA
- self-splicing fitness (ln) (30 °C): -0.78 ± 0.11
- self-splicing fitness (ln) (37 °C): -0.344 ± 0.097

Sequence: UCACAGCAAUAUUACGUGAU
- self-splicing fitness (ln) (30 °C): -3.64 ± 0.12
- self-splicing fitness (ln) (37 °C): -2.76 ± 0.15

Sequence: AGGAAGCAAUAUUACGGGCU
- self-splicing fitness (ln) (30 °C): -1.72 ± 0.12
- self-splicing fitness (ln) (37 °C): -0.915 ± 0.13

Sequence: CUCCAGCAAUAUUACGGCGG
- self-splicing fitness (ln) (30 °C): -4.65 ± 0.28
- self-splicing fitness (ln) (37 °C): -3.1 ± 0.22

Sequence: CAGAAGCAAUAUUACGGACU
- self-splicing fitness (ln) (30 °C): -2.88 ± 0.27
- self-splicing fitness (ln) (37 °C): -0.24 ± 0.31

Sequence: CAGGAGCAAUAUUACGAAUA
- self-splicing fitness (ln) (30 °C): -3.47 ± 0.29
- self-splicing fitness (ln) (37 °C): -1.49 ± 0.24

Sequence: AGGCAGCAAUAUUACGCGCC
- self-splicing fitness (ln) (30 °C): -2.4 ± 0.32
- self-splicing fitness (ln) (37 °C): -0.401 ± 0.29

Sequence: GCAGAGCAAUAUUACGGGAC
- self-splicing fitness (ln) (30 °C): -3.3 ± 0.14
- self-splicing fitness (ln) (37 °C): -1.65 ± 0.11

Sequence: AUCGAGCAAUAUUACGUCGC
- self-splicing fitness (ln) (30 °C): -2.55 ± 0.28
- self-splicing fitness (ln) (37 °C): -2.21 ± 0.29

Sequence: GCGUAGCAAUAUUACGACAA
- self-splicing fitness (ln) (30 °C): -0.888 ± 0.12
- self-splicing fitness (ln) (37 °C): -0.789 ± 0.13

Sequence: CAGGAGCAAUAUUACGGGUG
- self-splicing fitness (ln) (30 °C): -1.64 ± 0.082
- self-splicing fitness (ln) (37 °C): -0.707 ± 0.08

Sequence: UAGCAGCAAUAUUACGAUAU
- self-splicing fitness (ln) (30 °C): -2.42 ± 0.15
- self-splicing fitness (ln) (37 °C): -2.98 ± 0.19

Sequence: GGAAAGCAAUAUUACGAGCC
- self-splicing fitness (ln) (30 °C): -1.45 ± 0.12
- self-splicing fitness (ln) (37 °C): -0.842 ± 0.17

Sequence: GUACAGCAAUAUUACGUAAA
- self-splicing fitness (ln) (30 °C): -2.87 ± 0.14
- self-splicing fitness (ln) (37 °C): -1.44 ± 0.16

Sequence: UACUAGCAAUAUUACGUCGU
- self-splicing fitness (ln) (30 °C): -2.15 ± 0.16
- self-splicing fitness (ln) (37 °C): -1.96 ± 0.18

Sequence: UACUAGCAAUAUUACGGAGG
- self-splicing fitness (ln) (30 °C): -2.77 ± 0.17
- self-splicing fitness (ln) (37 °C): -1.28 ± 0.13

Sequence: GUUCAGCAAUAUUACGUACU
- self-splicing fitness (ln) (30 °C): -1.24 ± 0.1
- self-splicing fitness (ln) (37 °C): 0.162 ± 0.13

Sequence: GCCGAGCAAUAUUACGUUGU
- self-splicing fitness (ln) (30 °C): -2.48 ± 0.12
- self-splicing fitness (ln) (37 °C): -1.54 ± 0.12

Sequence: GACAAGCAAUAUUACGAGCU
- self-splicing fitness (ln) (30 °C): -1.28 ± 0.08
- self-splicing fitness (ln) (37 °C): -0.288 ± 0.11

Sequence: ACUCAGCAAUAUUACGCCUU
- self-splicing fitness (ln) (30 °C): -0.619 ± 0.053
- self-splicing fitness (ln) (37 °C): 0.491 ± 0.067

Sequence: UAAAAGCAAUAUUACGCUCC
- self-splicing fitness (ln) (30 °C): -2.04 ± 0.46
- self-splicing fitness (ln) (37 °C): -0.325 ± 0.48

Sequence: GCUGAGCAAUAUUACGAUAU
- self-splicing fitness (ln) (30 °C): -2.62 ± 0.28
- self-splicing fitness (ln) (37 °C): -1.08 ± 0.2

Sequence: GGUCAGCAAUAUUACGCUGU
- self-splicing fitness (ln) (30 °C): -3.34 ± 0.21
- self-splicing fitness (ln) (37 °C): -1.62 ± 0.18

Sequence: GCCAAGCAAUAUUACGGCAG
- self-splicing fitness (ln) (30 °C): -3.71 ± 0.19
- self-splicing fitness (ln) (37 °C): -2.54 ± 0.23

Sequence: AAGAAGCAAUAUUACGAUCA
- self-splicing fitness (ln) (30 °C): -0.455 ± 0.08
- self-splicing fitness (ln) (37 °C): -0.229 ± 0.099

Sequence: AUCGAGCAAUAUUACGUGCG
- self-splicing fitness (ln) (30 °C): -4 ± 0.29
- self-splicing fitness (ln) (37 °C): -1.73 ± 0.13

Sequence: AGAAAGCAAUAUUACGCCAC
- self-splicing fitness (ln) (37 °C): -2.07 ± 0.41

Sequence: GGUUAGCAAUAUUACGGGUG
- self-splicing fitness (ln) (30 °C): -1.7 ± 0.1
- self-splicing fitness (ln) (37 °C): -1.08 ± 0.12

Sequence: GGGCAGCAAUAUUACGUUAU
- self-splicing fitness (ln) (30 °C): -1.68 ± 0.097
- self-splicing fitness (ln) (37 °C): -0.345 ± 0.12

Sequence: UCGGAGCAAUAUUACGUUUA
- self-splicing fitness (ln) (30 °C): -2.32 ± 0.29
- self-splicing fitness (ln) (37 °C): -2.35 ± 0.42

Sequence: AUUUAGCAAUAUUACGACAU
- self-splicing fitness (ln) (30 °C): 0.163 ± 0.014
- self-splicing fitness (ln) (37 °C): 0.28 ± 0.033

Sequence: GCCAAGCAAUAUUACGCUAU
- self-splicing fitness (ln) (30 °C): -1.23 ± 0.064
- self-splicing fitness (ln) (37 °C): -0.923 ± 0.078

Sequence: AUCCAGCAAUAUUACGUGUU
- self-splicing fitness (ln) (30 °C): -2.74 ± 0.094
- self-splicing fitness (ln) (37 °C): -2.45 ± 0.12

Sequence: GCCUAGCAAUAUUACGGUCA
- self-splicing fitness (ln) (30 °C): -0.989 ± 0.13
- self-splicing fitness (ln) (37 °C): -0.494 ± 0.12

Sequence: UGACAGCAAUAUUACGGGUC
- self-splicing fitness (ln) (30 °C): -3.81 ± 0.24
- self-splicing fitness (ln) (37 °C): -2.94 ± 0.2

Sequence: UGCUAGCAAUAUUACGAUAU
- self-splicing fitness (ln) (30 °C): -2.3 ± 0.23
- self-splicing fitness (ln) (37 °C): -2.25 ± 0.21

Sequence: CACUAGCAAUAUUACGAUCA
- self-splicing fitness (ln) (30 °C): -2.46 ± 0.17
- self-splicing fitness (ln) (37 °C): -1.22 ± 0.16

Sequence: ACGAAGCAAUAUUACGUACA
- self-splicing fitness (ln) (30 °C): -2.13 ± 0.13
- self-splicing fitness (ln) (37 °C): -1.06 ± 0.12

Sequence: GAUUAGCAAUAUUACGCGUU
- self-splicing fitness (ln) (30 °C): -2.52 ± 0.31
- self-splicing fitness (ln) (37 °C): -1.8 ± 0.34

Sequence: CAGCAGCAAUAUUACGGAAA
- self-splicing fitness (ln) (30 °C): -3.12 ± 0.14
- self-splicing fitness (ln) (37 °C): -2.19 ± 0.16
